Data reported in the supplement of paper PMC10065799, “High-throughput profiling of sequence recognition by tyrosine kinases and SH2 domains using bacterial peptide display” (eLife, 2023).

These sequences were tested against FGFR3 (UniProt P22607) (assay: phosphorylation enrichment, bacterial display (enrichment ratio); higher = better substrate or ligand; peptides without Tyr show the background).
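Note: 11-residue human phosphosite peptides and single-mutation variants displayed on the E. coli surface, counted by deep sequencing, each peptide's frequency after selection divided by its frequency in the unselected input library; frequency after pTyr selection over input frequency; kinase dosed for 20-30% of maximal phosphorylation in three min.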

Sequence of FGFR3 (P22607 whole entry, looked up): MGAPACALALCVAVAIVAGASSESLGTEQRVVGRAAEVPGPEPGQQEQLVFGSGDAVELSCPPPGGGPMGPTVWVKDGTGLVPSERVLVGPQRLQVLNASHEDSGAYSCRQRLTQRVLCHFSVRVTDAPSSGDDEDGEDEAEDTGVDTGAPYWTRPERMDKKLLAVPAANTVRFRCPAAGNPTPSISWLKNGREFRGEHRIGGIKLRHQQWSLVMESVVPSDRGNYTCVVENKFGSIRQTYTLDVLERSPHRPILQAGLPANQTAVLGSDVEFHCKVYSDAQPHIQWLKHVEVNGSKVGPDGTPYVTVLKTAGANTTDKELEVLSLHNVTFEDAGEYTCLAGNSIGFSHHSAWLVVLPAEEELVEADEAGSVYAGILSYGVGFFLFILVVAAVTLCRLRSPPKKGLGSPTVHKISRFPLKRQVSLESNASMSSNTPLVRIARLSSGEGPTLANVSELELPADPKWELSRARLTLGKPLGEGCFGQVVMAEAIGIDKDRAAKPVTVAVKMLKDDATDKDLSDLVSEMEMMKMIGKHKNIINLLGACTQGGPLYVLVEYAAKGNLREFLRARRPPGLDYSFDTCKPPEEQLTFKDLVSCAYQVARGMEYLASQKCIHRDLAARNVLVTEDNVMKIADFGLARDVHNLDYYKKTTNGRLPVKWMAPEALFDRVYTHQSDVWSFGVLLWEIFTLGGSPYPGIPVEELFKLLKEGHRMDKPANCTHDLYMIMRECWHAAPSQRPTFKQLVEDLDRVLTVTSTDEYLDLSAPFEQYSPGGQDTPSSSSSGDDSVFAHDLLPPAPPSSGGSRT

Going from NGRTGDVLQPE [PLCG2_Y1036_Y1036D] to QLCVNYPGGFT [PROS1_Y259_YF], the phosphorylation enrichment rises from 0.669 to 0.904.

First: DAPVVYLGSFR [PRAG1_Y132]
Second: KTEMLYHLTAR [XRCC2_Y59]
The phosphorylation enrichment of the first is lower: 0.52 for the first, 0.858 for the second.

Going from ALTRSYIRERV [CYP2C8_Y243_K247R] to SRKSEYLLPVA [MYLK_Y611], the phosphorylation enrichment rises from 0.423 to 0.569.

First: KRAAIYNPVIY [RHO_Y301_S297R]
Second: ERCAQYKKDVA [ALDOA_Y138_G142V]
The phosphorylation enrichment of the first is lower: 0.443 for the first, 0.604 for the second.

Compared with DSIRDYEDGME [CLNS1A_Y214], FVIISYVLIIR [OR1D2_Y218] is lower in phosphorylation enrichment: 0.729 for the first, 0.727 for the second.

Going from RGYRVYYTPDS [PTPRF_Y450] to VGNAAYQAGPL [STK36_Y1181], the phosphorylation enrichment falls from 0.634 to 0.472.

Going from SSQVLYKLEQS [THADA_Y701] to HLTNQYMQRVA [PABPC4_Y382], the phosphorylation enrichment falls from 0.507 to 0.33.

Compared with VDDQIYYFRKP [PBRM1_Y1289_E1287Q], FLELNYKEDEF [MME_Y502_YF] is lower in phosphorylation enrichment: 7.78 for the first, 0.633 for the second.

First: HNVPIYEGYAL [ACTA1_Y168]
Second: RGNKEYEEEKR [LENG1_Y96]
The phosphorylation enrichment of the first is lower: 0.616 for the first, 0.686 for the second.

Compared with RLQEGYDHSFF [ESD_Y258_YF], ERFSFYGMKAV [SLC15A2_Y61_YF] is higher in phosphorylation enrichment: 0.57 for the first, 0.84 for the second.

Going from SFVVRYNQPRV [GRIN2D_Y736_M733V_YF] to QSGGQYSSQGL [TNNI3K_Y788_A785G], the phosphorylation enrichment rises from 0.608 to 0.854.

Going from TLQSMYGCDMG [HLA-B_Y123_V127M] to QKPLGYYRVNL [GALE_Y104_D103G], the phosphorylation enrichment falls from 0.955 to 0.826.

Compared with GNLLIYTKFGK [HGD_Y166_E168K], IINENYDFLKG [NUP98_Y1664_YF] is lower in phosphorylation enrichment: 0.788 for the first, 0.631 for the second.

First: IKIMGYSIRTI [IDS_Y490]
Second: LQRVQYDLQKA [DSP_Y1512]
The phosphorylation enrichment of the first is lower: 0.657 for the first, 0.816 for the second.

Compared with GTYVIYVRFGG [FLNB_Y1687], VAVTKYCKEEF [ATP7B_Y1078_L1083F] is lower in phosphorylation enrichment: 0.736 for the first, 0.624 for the second.

First: MALDRYVASCK [OR2B11_Y127_I130S]
Second: NEANKYQISVN [FGB_Y368]
The phosphorylation enrichment of the first is higher: 0.569 for the first, 0.459 for the second.

Sequence NLDCFYQQVTK [SEC16A_Y1041_R1039C] has a phosphorylation enrichment of 0.786.

What follows are sequences tested on Fer (mouse) in the same assay as above.

Compared with NGRTGDVLQPE [PLCG2_Y1036_Y1036D], QLCVNYPGGFT [PROS1_Y259_YF] is higher in phosphorylation enrichment: 0.464 for the first, 0.692 for the second.

First: DAPVVYLGSFR [PRAG1_Y132]
Second: KTEMLYHLTAR [XRCC2_Y59]
The phosphorylation enrichment of the first is higher: 0.448 for the first, 0.419 for the second.

Compared with ALTRSYIRERV [CYP2C8_Y243_K247R], SRKSEYLLPVA [MYLK_Y611] is higher in phosphorylation enrichment: 0.373 for the first, 0.44 for the second.

Going from KRAAIYNPVIY [RHO_Y301_S297R] to ERCAQYKKDVA [ALDOA_Y138_G142V], the phosphorylation enrichment falls from 5.24 to 0.45.

Going from DSIRDYEDGME [CLNS1A_Y214] to FVIISYVLIIR [OR1D2_Y218], the phosphorylation enrichment rises from 0.49 to 0.566.

Compared with RGYRVYYTPDS [PTPRF_Y450], VGNAAYQAGPL [STK36_Y1181] is lower in phosphorylation enrichment: 1.11 for the first, 0.392 for the second.

First: SSQVLYKLEQS [THADA_Y701]
Second: HLTNQYMQRVA [PABPC4_Y382]
The phosphorylation enrichment of the first is lower: 0.431 for the first, 0.446 for the second.

Compared with VDDQIYYFRKP [PBRM1_Y1289_E1287Q], FLELNYKEDEF [MME_Y502_YF] is lower in phosphorylation enrichment: 1.75 for the first, 0.524 for the second.

Compared with HNVPIYEGYAL [ACTA1_Y168], RGNKEYEEEKR [LENG1_Y96] is lower in phosphorylation enrichment: 24.7 for the first, 0.394 for the second.

Going from RLQEGYDHSFF [ESD_Y258_YF] to ERFSFYGMKAV [SLC15A2_Y61_YF], the phosphorylation enrichment rises from 0.422 to 0.554.

Going from SFVVRYNQPRV [GRIN2D_Y736_M733V_YF] to QSGGQYSSQGL [TNNI3K_Y788_A785G], the phosphorylation enrichment falls from 0.49 to 0.401.

First: TLQSMYGCDMG [HLA-B_Y123_V127M]
Second: QKPLGYYRVNL [GALE_Y104_D103G]
The phosphorylation enrichment of the first is higher: 0.599 for the first, 0.51 for the second.

Compared with GNLLIYTKFGK [HGD_Y166_E168K], IINENYDFLKG [NUP98_Y1664_YF] is lower in phosphorylation enrichment: 0.532 for the first, 0.466 for the second.

Compared with IKIMGYSIRTI [IDS_Y490], LQRVQYDLQKA [DSP_Y1512] is higher in phosphorylation enrichment: 0.478 for the first, 0.58 for the second.

Compared with GTYVIYVRFGG [FLNB_Y1687], VAVTKYCKEEF [ATP7B_Y1078_L1083F] is lower in phosphorylation enrichment: 0.516 for the first, 0.487 for the second.

Compared with MALDRYVASCK [OR2B11_Y127_I130S], NEANKYQISVN [FGB_Y368] is lower in phosphorylation enrichment: 0.475 for the first, 0.369 for the second.

With NLDCFYQQVTK [SEC16A_Y1041_R1039C] the phosphorylation enrichment was 2.22.

The sequences below were run against Fes (UniProt P07332) in the same assay as above.
Sequence of Fes (P07332 whole entry, looked up): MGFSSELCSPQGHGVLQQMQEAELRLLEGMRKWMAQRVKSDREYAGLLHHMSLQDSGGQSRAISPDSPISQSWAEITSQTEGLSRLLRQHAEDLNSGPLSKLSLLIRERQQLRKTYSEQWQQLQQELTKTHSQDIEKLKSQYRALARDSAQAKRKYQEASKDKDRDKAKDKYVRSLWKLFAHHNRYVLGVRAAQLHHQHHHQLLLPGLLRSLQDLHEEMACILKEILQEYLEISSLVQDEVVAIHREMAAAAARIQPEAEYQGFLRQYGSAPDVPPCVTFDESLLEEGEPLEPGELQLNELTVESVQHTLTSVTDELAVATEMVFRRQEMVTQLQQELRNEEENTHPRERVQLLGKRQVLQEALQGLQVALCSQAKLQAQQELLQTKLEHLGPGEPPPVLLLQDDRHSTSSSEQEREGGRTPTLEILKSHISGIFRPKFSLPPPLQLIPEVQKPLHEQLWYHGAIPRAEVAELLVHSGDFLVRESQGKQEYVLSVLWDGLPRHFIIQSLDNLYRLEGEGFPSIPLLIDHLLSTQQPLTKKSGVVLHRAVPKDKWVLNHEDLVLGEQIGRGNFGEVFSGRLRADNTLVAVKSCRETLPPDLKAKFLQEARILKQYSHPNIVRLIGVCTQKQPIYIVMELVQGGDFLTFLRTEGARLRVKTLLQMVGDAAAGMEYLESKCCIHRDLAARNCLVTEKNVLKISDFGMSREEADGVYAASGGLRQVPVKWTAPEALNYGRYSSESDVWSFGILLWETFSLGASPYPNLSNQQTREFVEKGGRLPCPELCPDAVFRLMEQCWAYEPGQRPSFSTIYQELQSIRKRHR

First: NGRTGDVLQPE [PLCG2_Y1036_Y1036D]
Second: QLCVNYPGGFT [PROS1_Y259_YF]
The phosphorylation enrichment of the first is lower: 1.05 for the first, 1.61 for the second.

Going from DAPVVYLGSFR [PRAG1_Y132] to KTEMLYHLTAR [XRCC2_Y59], the phosphorylation enrichment rises from 0.906 to 0.982.

Compared with ALTRSYIRERV [CYP2C8_Y243_K247R], SRKSEYLLPVA [MYLK_Y611] is higher in phosphorylation enrichment: 0.536 for the first, 0.602 for the second.

Compared with KRAAIYNPVIY [RHO_Y301_S297R], ERCAQYKKDVA [ALDOA_Y138_G142V] is higher in phosphorylation enrichment: 0.556 for the first, 1.05 for the second.

Compared with DSIRDYEDGME [CLNS1A_Y214], FVIISYVLIIR [OR1D2_Y218] is lower in phosphorylation enrichment: 1.26 for the first, 0.733 for the second.

Compared with RGYRVYYTPDS [PTPRF_Y450], VGNAAYQAGPL [STK36_Y1181] is lower in phosphorylation enrichment: 1.07 for the first, 0.556 for the second.

Compared with SSQVLYKLEQS [THADA_Y701], HLTNQYMQRVA [PABPC4_Y382] is lower in phosphorylation enrichment: 0.726 for the first, 0.429 for the second.

Going from VDDQIYYFRKP [PBRM1_Y1289_E1287Q] to FLELNYKEDEF [MME_Y502_YF], the phosphorylation enrichment falls from 1.23 to 1.05.

Compared with HNVPIYEGYAL [ACTA1_Y168], RGNKEYEEEKR [LENG1_Y96] is lower in phosphorylation enrichment: 5.3 for the first, 0.756 for the second.

Going from RLQEGYDHSFF [ESD_Y258_YF] to ERFSFYGMKAV [SLC15A2_Y61_YF], the phosphorylation enrichment rises from 0.794 to 1.56.

Going from SFVVRYNQPRV [GRIN2D_Y736_M733V_YF] to QSGGQYSSQGL [TNNI3K_Y788_A785G], the phosphorylation enrichment falls from 1.1 to 0.779.

First: TLQSMYGCDMG [HLA-B_Y123_V127M]
Second: QKPLGYYRVNL [GALE_Y104_D103G]
The phosphorylation enrichment of the first is higher: 1.43 for the first, 0.641 for the second.

Going from GNLLIYTKFGK [HGD_Y166_E168K] to IINENYDFLKG [NUP98_Y1664_YF], the phosphorylation enrichment falls from 1.28 to 0.903.

First: IKIMGYSIRTI [IDS_Y490]
Second: LQRVQYDLQKA [DSP_Y1512]
The phosphorylation enrichment of the first is higher: 1.01 for the first, 0.788 for the second.

Going from GTYVIYVRFGG [FLNB_Y1687] to VAVTKYCKEEF [ATP7B_Y1078_L1083F], the phosphorylation enrichment falls from 1.32 to 1.05.

First: MALDRYVASCK [OR2B11_Y127_I130S]
Second: NEANKYQISVN [FGB_Y368]
The phosphorylation enrichment of the first is higher: 0.846 for the first, 0.816 for the second.

Sequence NLDCFYQQVTK [SEC16A_Y1041_R1039C] has a phosphorylation enrichment of 1.31.

Each sequence was assayed against Fyn (UniProt P06241) in the same assay as above.
Sequence of Fyn (P06241 whole entry, looked up): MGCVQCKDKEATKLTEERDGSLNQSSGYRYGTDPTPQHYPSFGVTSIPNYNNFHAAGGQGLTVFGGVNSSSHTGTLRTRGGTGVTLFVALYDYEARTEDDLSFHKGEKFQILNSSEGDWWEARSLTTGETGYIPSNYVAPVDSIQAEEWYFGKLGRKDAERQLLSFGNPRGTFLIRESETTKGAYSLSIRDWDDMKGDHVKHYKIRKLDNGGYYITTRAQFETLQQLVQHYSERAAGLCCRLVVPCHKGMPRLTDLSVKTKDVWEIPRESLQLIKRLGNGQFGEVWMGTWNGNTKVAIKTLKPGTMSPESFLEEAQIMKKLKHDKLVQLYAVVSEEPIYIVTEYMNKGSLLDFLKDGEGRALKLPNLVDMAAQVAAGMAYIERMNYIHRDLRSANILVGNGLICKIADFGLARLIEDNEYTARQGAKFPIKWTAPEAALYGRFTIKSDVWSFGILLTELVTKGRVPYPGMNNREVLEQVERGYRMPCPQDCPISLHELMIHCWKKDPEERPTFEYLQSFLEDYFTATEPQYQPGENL

Compared with NGRTGDVLQPE [PLCG2_Y1036_Y1036D], QLCVNYPGGFT [PROS1_Y259_YF] is higher in phosphorylation enrichment: 0.39 for the first, 0.675 for the second.

First: DAPVVYLGSFR [PRAG1_Y132]
Second: KTEMLYHLTAR [XRCC2_Y59]
The phosphorylation enrichment of the first is lower: 0.436 for the first, 0.73 for the second.

First: ALTRSYIRERV [CYP2C8_Y243_K247R]
Second: SRKSEYLLPVA [MYLK_Y611]
The phosphorylation enrichment of the first is lower: 0.334 for the first, 0.619 for the second.

First: KRAAIYNPVIY [RHO_Y301_S297R]
Second: ERCAQYKKDVA [ALDOA_Y138_G142V]
The phosphorylation enrichment of the first is higher: 2.33 for the first, 0.596 for the second.

Going from DSIRDYEDGME [CLNS1A_Y214] to FVIISYVLIIR [OR1D2_Y218], the phosphorylation enrichment falls from 0.647 to 0.517.

Compared with RGYRVYYTPDS [PTPRF_Y450], VGNAAYQAGPL [STK36_Y1181] is lower in phosphorylation enrichment: 0.979 for the first, 0.458 for the second.

Compared with SSQVLYKLEQS [THADA_Y701], HLTNQYMQRVA [PABPC4_Y382] is lower in phosphorylation enrichment: 0.48 for the first, 0.356 for the second.

First: VDDQIYYFRKP [PBRM1_Y1289_E1287Q]
Second: FLELNYKEDEF [MME_Y502_YF]
The phosphorylation enrichment of the first is higher: 8.3 for the first, 0.461 for the second.

First: HNVPIYEGYAL [ACTA1_Y168]
Second: RGNKEYEEEKR [LENG1_Y96]
The phosphorylation enrichment of the first is higher: 16.9 for the first, 0.534 for the second.

Going from RLQEGYDHSFF [ESD_Y258_YF] to ERFSFYGMKAV [SLC15A2_Y61_YF], the phosphorylation enrichment rises from 0.427 to 0.439.

Going from SFVVRYNQPRV [GRIN2D_Y736_M733V_YF] to QSGGQYSSQGL [TNNI3K_Y788_A785G], the phosphorylation enrichment rises from 0.483 to 0.488.

Compared with TLQSMYGCDMG [HLA-B_Y123_V127M], QKPLGYYRVNL [GALE_Y104_D103G] is lower in phosphorylation enrichment: 0.597 for the first, 0.528 for the second.

First: GNLLIYTKFGK [HGD_Y166_E168K]
Second: IINENYDFLKG [NUP98_Y1664_YF]
The phosphorylation enrichment of the first is higher: 1.46 for the first, 0.426 for the second.

Going from IKIMGYSIRTI [IDS_Y490] to LQRVQYDLQKA [DSP_Y1512], the phosphorylation enrichment rises from 0.452 to 0.582.

Going from GTYVIYVRFGG [FLNB_Y1687] to VAVTKYCKEEF [ATP7B_Y1078_L1083F], the phosphorylation enrichment falls from 0.62 to 0.459.

Compared with MALDRYVASCK [OR2B11_Y127_I130S], NEANKYQISVN [FGB_Y368] is higher in phosphorylation enrichment: 0.421 for the first, 0.435 for the second.

For NLDCFYQQVTK [SEC16A_Y1041_R1039C], the phosphorylation enrichment was 0.675.
